Test results taken from PMC12658067.

Columns and labels:
[1] = molecular target: C-tail deletion mutant of T7 gp4A' with 17 C-terminal amino acid residues deleted (gp4A' ΔCt) (bacteriophage T7) (UniProt P03692)
[2] = molecular target: C-tail deletion mutant of T7 gp4A' with 17 C-terminal amino acid residues deleted (gp4A' ΔCt) (bacteriophage T7) (UniProt P03692); remark: listed apart in the source
[3] = molecular target: M64L mutant of T7 helicase gp4 (T7 gp4A') (bacteriophage T7) (UniProt P03692)

Row | fork regression during stalling under torsion (angular optical trap), ΔCt exo- replisome, mean fork position over a minute [1] | fork regression during stalling under torsion (angular optical trap), ΔCt replisome, mean fork position over a minute [2] | fork regression during stalling under torsion (angular optical trap), WT replisome, mean fork position over a minute [3] | Substance
1 | 340 bp |  |  | Exonuclease deficient mutant of T7 gp5 DNA polymerase (D5A, E7A) complexed with E. coli thioredoxin (from UniProt P00581 1-704; P0AA25 1-109)
2 |  | 240 bp | 80 bp | Wild-type T7 gp5 DNA polymerase complexed with E. coli thioredoxin (from UniProt P00581 1-704; P0AA25 1-109)
